According to patent US7572600B2, “Enzymatic activities in chemokine-mediated inflammation” (Chemocentryx, Inc., priority 2004, dated 2009):
Where no end group is shown, it is not given here.

B1: CCL23β Δ24: truncated form of CCL23β lacking the 24-residue N-terminal domain, beginning with the SHAAGtide insertion (protein, listed as Homo sapiens)
chain: MLWRRKIGPQMTLSHAAGFHATSADCCISYTPRSIPCSLLESYFETNSECSKPGVIFLTKKGRRFCANPSDKQVQVCMRMLKLDTRIKTRKN

Key:
[1] = tested on: murine bone marrow neutrophils; experiment: Calcium responses and chemotaxis in murine bone marrow neutrophils; assay type: cell-based, mouse; conditions: murine bone marrow neutrophils (not shown)
[2] = tested on: human monocytes; experiment: Calcium mobilization in freshly isolated human monocytes; assay type: cell-based; conditions: for calcium mobilization: undigested chemokine or peptide, 100 nM (CCL23β up to 250 nM)
Description: (§1) Calcium Mobilization Assay. Cells were loaded for 1 hour with 2 μM indo-1/AM dye (Molecular Probes, Eugene, Oreg.) in culture medium, then washed with 10 ml PBS and resuspended at 10^6/ml in HBSS containing 1% FBS. Cytosolic calcium responses were determined using a Photon Technology International (Lawrenceville, N.J.) fluorimeter, with excitation at 350 nm and dual emission at 400 and 490 nm. Alternatively, cells were loaded with 5 μg/ml Fluo-4 AM dye (Molecular Probes, Eugene, Oreg.), then washed and analyzed on a Fluorometric Imaging Plate Reader 384 (FLIPR^384 Molecular Devices, Sunnyvale, Calif.), with 505 nm excitation and 530 nm emission.
(§2) Receptor signaling assay. For individual measurements, cells were loaded for 45 min at room temperature with 2 μM indo-1/AM (Invitrogen, Carlsbad Calif.) in culture medium, then washed with 10 ml PBS and resuspended at 10^6 cells/ml in HBSS containing 0.1% BSA. Cytosolic calcium levels were determined using a Photon Technology International fluorimeter (excitation at 350 nm, ratio of dual emission at 400 and 490 nm). For measuring calcium dose responses, cells were analyzed with a Fluorometric Imaging Plate Reader 384 (FLIPR^384) (Molecular Devices, Sunnyvale, Calif.). Cells were loaded for 1 hr at 37° C. with 5 μM fluo-4 in HBSS with 0.1% BSA, then washed, transferred to black-wall 96-well plates, and subsequently excited at 505 nm with emission recorded at 530 nm with a standard protocol provided by the manufacture. Cells were stimulated with agonists 20 s after the monitoring of fluorescence began. Data were analyzed and plotted in arbitrary units of fluorescence using Prism. To ensure that responses were specific to FPRL1, we utilized a selective small-molecule antagonist of human FPRL1, generated by ChemoCentryx, which was optimized from a high throughput compound library screening approach.

[3] = tested on: monocyte-derived dendritic cells; experiment: Calcium mobilization in monocyte-derived dendritic cells; assay type: cell-based, human
Description: Human monocytes were obtained from buffy coats purchased from the Stanford Blood Bank (Palo Alto, Calif.) by sedimentation on Ficoll-Paque (Amersham, Piscataway, N.J.) and selection with anti-CD14 magnetic beads (Miltenyi, Auburn, Calif.) according to the manufacturers' instructions. For generation of dendritic cells, monocytes were cultured for 6 days in RPMI-1640 medium containing 10% FBS (HyClone, Logan, Utah). On days 0, 2 and 4, GM-CSF and IL-4 (both purchased from R&D Systems, Minneapolis, Minn.) were added to the cultures at 1000 WHO unit/ml each. The cells were confirmed to be CD14^−CD1a^+ immature DC by FACS staining on day 6.
as §1
Immature and mature DC preparation. Immature DCs were derived by culturing CD14+ monocytes in T-175 cultured flasks at a density of 10^6 cells/ml in RPMI supplemented with 10% FBS. Recombinant human cytokines GM-CSF and IL-4 (final concentration 1000 and 500 U/ml, respectively) were added on day 0, 2, 4 and 6. Cells were harvested on day 6 as immature DCs and characterized for surface marker expression by flow cytometry. DC maturation was carried out by culturing day-6 immature DCs in RPMI-10% FBS supplemented with GM-CSF, IL-4 and 50 μg/ml polyIC (Sigma, St. Louis Mo.). After two more days of culture, cells were harvested as mature DCs and characterized by surface marker expression by flow cytometry.
as §2

[4] = tested on: human neutrophils; experiment: Chemotaxis of human neutrophils; assay type: cell-based
Description: Chemotaxis assay. L1.2-CCR1 transfectants, THP-1 cells, human monocytes and human neutrophils were collected by centrifugation and resuspended in HBSS containing 0.1% BSA. Chemotaxis assays were performed in 96-well ChemoTx® microplates (Neuroprobe, Rockville, Md.) as follows. Chemokines were added to the lower wells (final volume 29 μL), and 20 μL of cell suspension (5×10^6 cells/mL) was added to the polycarbonate filter (3 μm pore size for neutrophils, 5 μm for other 3 cell types). After incubation at 37° C. in the presence of 5% CO2 for 1 hr (neutrophils), 90 min (monocytes) or 2 h (THP-1 and L1.2-CCR1), cells were removed from the upper surface of the filter by scraping. Cells that migrated into the lower chamber were quantified by using the CyQuant cell proliferation assay kit (Molecular Probes, Eugene, Oreg.) and analyzed with a Tecan (Durham, N.C.) fluorimeter (excitation at 480 nm, emission at 530 nm). Data were analyzed and plotted in arbitrary units of fluorescence using Prism (GraphPad Software, San Diego, Calif.).
Chemotaxis assays. L1.2-CCR1 and L1.2-FPRL1 transfectants, monocytes and neutrophils were collected by centrifugation and resuspended in HBSS with 0.1% BSA. The assays were performed in 96-well ChemoTx® microplates (Neuroprobe, Rockville, Md.). Chemokines were diluted in HBSS with 0.1% BSA and added to the lower wells (final volume 29 μL), then 20 μL of cell suspension (5×10^6 cells/mL for monocytes; 2.5×10^6 cells/mL for neutrophils) were added to the polycarbonate filters (5 μm pore size for monocytes and FPRL1 transfectants; 3 μm pore size for neutrophils). After incubation for 90 min (37° C., 100% humidity, 5% CO2), the filters were removed and the cells that migrated into the lower chamber were quantified by using the CyQuant cell proliferation assay kit (Molecular Probes, Oreg.).

Molecule | calcium responses and chemotaxis [1] | calcium mobilization [2] | calcium response ([3]; immature DC, undigested) | calcium response ([3]; mature DC) | chemotaxis [4] | magnitude of calcium signal versus CCL15 Δ24/leukotactin ([2]; both at 100 nM)
MLWRRKIGPQMTLSHAAG [SHAAGtide] | able to induce calcium responses and chemotaxis | equipotent to CCL23β Δ24 | much smaller calcium response | small amount of signaling activity | vigorous chemotaxis | 
B1 | able to induce calcium responses and chemotaxis | particularly strong and sustained calcium profile | strong calcium response | diminished | vigorous chemotaxis | at least two fold higher
